Assay results from patent US20170165338A1.

Biological target: HLA-A*24 (human)
Assay: UV-exchange b2m ELISA

Binder	peptide exchange yield
VFKASKITF	50 to 75%
LYLDIINLF	> 75%
TYIESASEL	50 to 75%
YFDKVVTL	20 to 49%
VYVSDIQEL	50 to 75%
RYFKGLVF	50 to 75%
IFPQFLYQF	> 75%
TYIKPISKL	50 to 75%
LYLDKATLI	50 to 75%
VFQNFPLLF	> 75%
RYPDNLKHLYL	> 75%
EYINQGDLHEF	50 to 75%
KYPVEWAKF	> 75%
FYSRLLQKF	50 to 75%
VYRDETGELF	50 to 75%
YYLEVGKTLI	> 75%
IFIEVFSHF	50 to 75%
EYPLVINTL	50 to 75%
RYLNKAFHI	50 to 75%
TYTQDFNKF	50 to 75%
LYNKGFIYL	> 75%
TYGDAGLTYTF	50 to 75%
VHIPEVYLI	50 to 75%
IYKVGAPTI	50 to 75%
LYLKLWNLI	50 to 75%
IYQLDTASI	50 to 75%
KYIPYKYVI	50 to 75%

Binder	peptide exchange yield
RFHPTPLLL	> 75%
VFTSTARAF	50 to 75%
SYALLTYMI	> 75%
KYTSWYVAL	> 75%
FFPPTRQMGLLF	> 75%
EYQENFLSF	50 to 75%
TYLRDQHFL	> 75%
KFVDSTFYL	> 75%
VYGFQWRHF	> 75%
EFGSLHLEFL	< 20%
HYSQELSLLYL	> 75%
IFLDYEAGTLSF	> 75%
IYTMIYRNL	> 75%
RYPDNLKHL	20 to 49%
QYLENLEKL	50 to 75%
IYDDSFIRPVTF	50 to 75%
KYMVYPQTF	> 75%
AYLHSHALI	> 75%
WYVNGVNYF	20 to 49%
LYHDIFSRL	> 75%
MYDSYWRQF	> 75%
GFFIFNERF	50 to 75%
YYVYIMNHL	50 to 75%
RYISDQLFTNF	> 75%
QYSSVFKSL	> 75%
RYSTGLAGNLL	50 to 75%
QYLQDAYSF	> 75%
